Source: US11814435B2, “Therapeutic antibodies and their uses” (PFIZER INC., priority 2015, dated 2023)

T1: hBCMA (human BCMA) (Homo sapiens, UniProt Q02223)
T1 sequence (Q02223 1-184): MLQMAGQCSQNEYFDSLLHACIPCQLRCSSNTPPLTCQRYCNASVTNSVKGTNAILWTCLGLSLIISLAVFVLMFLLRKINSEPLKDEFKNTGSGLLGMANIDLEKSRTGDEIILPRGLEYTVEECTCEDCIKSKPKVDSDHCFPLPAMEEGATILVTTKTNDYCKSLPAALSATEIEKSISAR


What was measured:
hBCMA (human BCMA) = target: T1, hBCMA (human BCMA); assay: Kinetics and affinity of hBCMA/human IgG interactions by SPR (Bio-Rad Proteon XPR36); type: binding; settings: human BCMA, 37° C.
Method in brief: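 Kinetic constants and affinity come from fitting double-referenced sensorgrams to a 1:1 Langmuir model with mass transport. Antigen flowed over amine-immobilized IgGs in five rising injections up to 50 nM, two minutes apiece, then a 2 h dissociation; runs at 37° C. or 25° C.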

Cyno BCMA = assay: Kinetics and affinity of cyno BCMA/human IgG interactions by SPR (Bio-Rad Proteon XPR36); type: binding, cynomolgus; settings: 37° C.

Row | Molecule | Kd (hBCMA (human BCMA)) [nM] | ka Human (hBCMA (human BCMA)) [M⁻¹ s⁻¹] | kd Human (hBCMA (human BCMA)) [s⁻¹] | Kd (Cyno BCMA) [nM] | ka Cyno (Cyno BCMA) [M⁻¹ s⁻¹] | kd Cyno (Cyno BCMA) [s⁻¹]
1 | A02_Rd4_6 nM_C08: anti-BCMA antibody (antibody, V domains shown) VH: EVQLLESGGGLVQPGGSLRLSCAASGFTFSSYAMNWVRQAPGKGLEWVSAILDSGGSTYYADSVKGRFTISRDNSKNTLYLQMNSLRAEDTAVYYCARYWPMSPWGQGTLVTVSS VL: EIVLTQSPGTLSLSPGERATLSCRASQSVSFLYLAWYQQKPGQAPRLLMYDASIRATGIPDRFSGSGSGTDFTLTISRLEPEDFAVYYCQQYGSWPLTFGQGTKVEIK | 0.188 | 3.92e+06 | 0.000738 | 5.07 | 2.23e+06 | 0.0113
2 | C01_Rd4_6 nM_C26: anti-BCMA antibody (antibody, V domains shown) VH: EVQLLESGGGLVQPGGSLRLSCAASGFTFSSYPMSWVRQAPGKGLEWVSAIGGSGGSLPYADSVKGRFTISRDNSKNTLYLQMNSLRAEDTAVYYCARYWPMDSWGQGTLVTVSS VL: EIVLTQSPGTLSLSPGERATLSCRASQSVSALYLAWYQQKPGQAPRLLIYDASSRAPGIPDRFSGSGSGTDFTLTISRLEPEDFAVYYCQQYSAWPLTFGQGTKVEIK | – | 1.5e+07 | 0.00136 | – | 4.75e+06 | 0.00199
3 | C01_Rd4_6 nM_C20: anti-BCMA antibody (antibody, V domains shown) VH: EVQLLESGGGLVQPGGSLRLSCAASGFTFSSYPMSWVRQAPGKGLEWVSAIGGSGGSLPYADSVKGRFTISRDNSKNTLYLQMNSLRAEDTAVYYCARYWPMDSWGQGTLVTVSS VL: EIVLTQSPGTLSLSPGERATLSCRASQSVSPLYLAWYQQKPGQAPRLLIYDASSRAPGIPDRFSGSGSGTDFTLTISRLEPEDFAVYYCQQYSAFPLTFGQGTKVEIK | – | 6.02e+06 | 0.00276 | – | 3.6e+06 | 0.00625
4 | P5C1_VHVL: anti-BCMA antibody (antibody, V domains shown) VH: EVQLLESGGGLVQPGGSLRLSCAASGFTFSSYPMSWVRQAPGKGLEWVSAIGGSGGSTYYADSVKGRFTISRDNSKNTLYLQMNSLRAEDTAVYYCARYWPMDSWGQGTLVTVSS VL: EIVLTQSPGTLSLSPGERATLSCRASQSVSSTYLAWYQQKPGQAPRLLIYDASSRAPGIPDRFSGSGSGTDFTLTISRLEPEDFAVYYCQQYSTSPLTFGQGTKVEIK | – | 1.16e+07 | 0.0692 | – | 3.53e+06 | 0.0538
5 | C01_Rd4_0.6 nM_C06: anti-BCMA antibody (antibody, V domains shown) VH: EVQLLESGGGLVQPGGSLRLSCAASGFTFSSYPMSWVRQAPGKGLEWVSAIGGSGGSLPYADSVKGRFTISRDNSKNTLYLQMNSLRAEDTAVYYCARYWPMDSWGQGTLVTVSS VL: EIVLTQSPGTLSLSPGERATLSCRASEAVPSTYLAWYQQKPGQAPRLLIYDASSRAPGIPDRFSGSGSGTDFTLTISRLEPEDFAVYYCQQYSAFPLTFGQGTKVEIK | – | 1.82e+07 | 0.0154 | – | 6.22e+06 | 0.0121
6 | C01_Rd4_6 nM_C09: anti-BCMA antibody (antibody, V domains shown) VH: EVQLLESGGGLVQPGGSLRLSCAASGFTFSSYPMSWVRQAPGKGLEWVSATVGSGGSIGYADSVKGRFTISRDNSKNTLYLQMNSLRAEDTAVYYCARYWPMDSWGQGTLVTVSS VL: EIVLTQSPGTLSLSPGERATLSCACSQSVSSTYLAWYQQKPGQAPRLLIYDASSRAPGIPDRFSGSGSGTDFTLTISRLEPEDFAVYYCQQYSAWPLTFGQGTKVEIK | – | 1.58e+07 | 0.0128 | – | 3.73e+06 | 0.00868
7 | C01_Rd4_0.6 nM_C03: anti-BCMA antibody (antibody, V domains shown) VH: EVQLLESGGGLVQPGGSLRLSCAASGFTFSSYPMSWVRQAPGKGLEWVSAIGGSGGSLPYADSVKGRFTISRDNSKNTLYLQMNSLRAEDTAVYYCARYWPMDSWGQGTLVTVSS VL: EIVLTQSPGTLSLSPGERATLSCRASCDVSSTYLAWYQQKPGQAPRLLIYDASSRAPGIPDRFSGSGSGTDFTLTISRLEPEDFAVYYCQQYMRSPLTFGQGTKVEIK | – | 1.55e+07 | 0.015 | – | 4.72e+06 | 0.0119
8 | C01_Rd4_6 nM_C04: anti-BCMA antibody (antibody, V domains shown) VH: EVQLLESGGGLVQPGGSLRLSCAASGFTFSSYPMSWVRQAPGKGLEWVSAIGGSGGSLPYADSVKGRFTISRDNSKNTLYLQMNSLRAEDTAVYYCARYWPMDSWGQGTLVTVSS VL: EIVLTQSPGTLSLSPGERATLSCCSSQSVSSTYLAWYQQKPGQAPRLLIYDASSRAPGIPDRFSGSGSGTDFTLTISRLEPEDFAVYYCQQYSAFPLTFGQGTKVEIK | – | 2.33e+07 | 0.0497 | – | 6.34e+06 | 0.0327
9 | C01_Rd4_0.6 nM_C09: anti-BCMA antibody (antibody, V domains shown) VH: EVQLLESGGGLVQPGGSLRLSCAASGFTFSSYPMSWVRQAPGKGLEWVSAIGGSGGSLPYADSVKGRFTISRDNSKNTLYLQMNSLRAEDTAVYYCARYWPMDSWGQGTLVTVSS VL: EIVLTQSPGTLSLSPGERATLSCRASQSVSSLFLAWYQQKPGQAPRLLIYDASSRAPGIPDRFSGSGSGTDFTLTISRLEPEDFAVYYCQQYSAWPLTFGQGTKVEIK | – | 1.51e+07 | 0.00825 | – | 5.28e+06 | 0.00936
10 | C01_Rd4_0.6 nM_C16: anti-BCMA antibody (antibody, V domains shown) VH: EVQLLESGGGLVQPGGSLRLSCAASGFTFSSYPMSWVRQAPGKGLEWVSAIGGSGGSLPYADSVKGRFTISRDNSKNTLYLQMNSLRAEDTAVYYCARYWPMDSWGQGTLVTVSS VL: EIVLTQSPGTLSLSPGERATLSCRASQSVSSTYLAWYQQKPGQAPRLLIYDASSRAPGIPDRFSGSGSGTDFTLTISRLEPEDFAVYYCQQYSSWPLTFGQGTKVEIK | – | 1.55e+07 | 0.0063 | – | 4.95e+06 | 0.00464
11 | C01_Rd4_6 nM_C10: anti-BCMA antibody (antibody, V domains shown) VH: EVQLLESGGGLVQPGGSLRLSCAASGFTFSSYPMSWVRQAPGKGLEWVSAIGGSGGSLPYADSVKGRFTISRDNSKNTLYLQMNSLRAEDTAVYYCARYWPMDSWGQGTLVTVSS VL: EIVLTQSPGTLSLSPGERATLSCRASQSVSSVYLAWYQQKPGQAPRLLIYDASSRAPGIPDRFSGSGSGTDFTLTISRLEPEDFAVYYCQQYSTWPLTFGQGTKVEIK | – | 1.31e+07 | 0.00212 | – | 4.44e+06 | 0.00219
12 | COMBO_Rd4_6 nM_C21: anti-BCMA antibody (antibody, V domains shown) VH: EVQLLESGGGLVQPGGSLRLSCAASGFTFSSYPMSWVRQAPGKGLEWVSAIGGSGGSLPYADSVKGRFTISRDNSKNTLYLQMNSLRAEDTAVYYCARYWPMDSWGQGTLVTVSS VL: EIVLTQSPGTLSLSPGERATLSCRASQSVSAAYLAWYQQKPGQAPRLLMYDASIRATGIPDRFSGSGSGTDFTLTISRLEPEDFAVYYCQQYMCWPLTFGQGTKVEIK | – | 1.17e+07 | 7.34e-05 | – | 3.17e+06 | 0.000248
13 | C01_Rd4_0.6 nM_C27: anti-BCMA antibody (antibody, V domains shown) VH: EVQLLESGGGLVQPGGSLRLSCAASGFTFSSYPMSWVRQAPGKGLEWVSAIGGSGGSLPYADSVKGRFTISRDNSKNTLYLQMNSLRAEDTAVYYCARYWPMDSWGQGTLVTVSS VL: EIVLTQSPGTLSLSPGERATLSCRASQSVSSTYLAWYQQKPGQAPRLLIYDASSRAPGIPDRFSGSGSGTDFTLTISRLEPEDFAVYYCQQYSRWPLTFGQGTKVEIK | – | 1.23e+07 | 0.00374 | – | 3.34e+06 | 0.00285
14 | C01_Rd4_6 nM_C24: anti-BCMA antibody (antibody, V domains shown) VH: EVQLLESGGGLVQPGGSLRLSCAASGFTFSSYPMSWVRQAPGKGLEWVSAIGGSGGSLPYADSVKGRFTISRDNSKNTLYLQMNSLRAEDTAVYYCARYWPMDSWGQGTLVTVSS VL: EIVLTQSPGTLSLSPGERATLSCRASQSVSPEYLAWYQQKPGQAPRLLIYDASSRAPGIPDRFSGSGSGTDFTLTISRLEPEDFAVYYCQQYSVWPLTFGQGTKVEIK | – | 7.47e+06 | 0.00348 | – | 3.17e+06 | 0.000891
